Source: PMC7492416 (Nature plants, 2020)
Blank lines part the entries; values can stand above or below the binder they belong to.

B2: MEKK2-mCherry (natural protein, Arabidopsis thaliana (Col-0 cDNA), UniProt O81472 1-773, looked up)
chain: MKKSSDKSPVRQHDTATQINSDAVSSSTSFTDSDSTCSFLTPSMEFPDRISFRRIDFSEAAPTGVVLPSTSSELTRSNSSENKIPNEDISVSTSSRYLVFDKILALMKKSPGRRGDKTSPARRLDRSDAVRRNIDYDAGEDSSSLLITRSLDFPNRTSFRVDGVDDGEIDRIYQYIGVSGPEDFAISSDAWKARMEHERSSSDVVNKLKSLDLDSREAGPSGGVVASSSMNHKFQGHDLSEAGSIGVVVASNFTLSESNKIENLNSLRDKEIVDGDMVENRCGIERKPTILVKSRGYLVHNDDVGVGGGIKGVRPPVLNVPRADKEVVDGGTVESKSGIEWKPTILVKSKGYLVSNDGGIKGVTSPVLNLRPTDKEVVDSGTVENRRGIKGVRPSVLKPPPVMKLPPVDLPGSSWDILTHFAPDSEIVRRPSSSSSSENGCDEEEAEDDKVEKEETGDMFIQLEDTTDEACSFTTNEGDSSSTVSNTSPICVSGGSINTSWQKGQLLRQGSFGSVYEAISEDGDFFAVKEVSLLDQGSQAQECIQQLEGEIALLSQLEHQNILRYRGTDKDGSNLYIFLELVTQGSLLELYRRYQIRDSLISLYTKQILDGLKYLHHKGFIHRDIKCATILVDANGTVKLADFGLAKVSKLNDIKSRKETLFWMAPEVINRKDNDGYRSPADIWSLGCTVLEMCTGQIPYSDLEPVEALFRIRRGTLPEVPDTLSLDARHFILKCLKLNPEERPTATELLNHPFVRRPLPSSGSGSTSPLIRR

Columns and labels:
Assay in all cases: FRET or BRET
MEKK2-mCherry = molecular target: B2
SUMM2-GFP = molecular target: T1, SUMM2-GFP (Arabidopsis thaliana (Col-0 cDNA), UniProt P60838 1-894)
T1 sequence (looked up): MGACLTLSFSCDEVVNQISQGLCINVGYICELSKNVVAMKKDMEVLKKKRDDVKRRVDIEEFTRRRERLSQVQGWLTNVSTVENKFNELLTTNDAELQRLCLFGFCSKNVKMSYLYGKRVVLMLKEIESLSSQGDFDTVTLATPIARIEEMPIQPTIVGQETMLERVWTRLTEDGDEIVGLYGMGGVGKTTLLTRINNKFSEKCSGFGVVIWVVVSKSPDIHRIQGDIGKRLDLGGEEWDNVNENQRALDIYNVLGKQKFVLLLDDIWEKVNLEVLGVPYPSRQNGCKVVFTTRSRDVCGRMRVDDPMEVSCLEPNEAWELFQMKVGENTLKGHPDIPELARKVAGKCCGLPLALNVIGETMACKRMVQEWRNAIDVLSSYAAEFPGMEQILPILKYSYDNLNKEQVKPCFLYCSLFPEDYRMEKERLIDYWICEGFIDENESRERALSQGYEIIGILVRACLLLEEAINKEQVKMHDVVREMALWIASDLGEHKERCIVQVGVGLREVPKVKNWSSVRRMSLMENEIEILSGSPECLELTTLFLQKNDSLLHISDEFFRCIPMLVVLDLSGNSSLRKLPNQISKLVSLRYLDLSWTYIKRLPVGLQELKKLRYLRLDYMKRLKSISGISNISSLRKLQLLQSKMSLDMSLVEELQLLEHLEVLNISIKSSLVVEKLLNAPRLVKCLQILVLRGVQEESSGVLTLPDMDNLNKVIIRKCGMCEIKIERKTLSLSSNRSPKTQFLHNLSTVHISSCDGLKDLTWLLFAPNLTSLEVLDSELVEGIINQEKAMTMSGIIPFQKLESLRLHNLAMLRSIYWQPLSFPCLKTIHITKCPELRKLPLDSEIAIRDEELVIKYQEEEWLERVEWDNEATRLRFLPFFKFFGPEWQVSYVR

BIR2-mCherry = molecular target: T2, BIR2-mCherry (UniProt Q9LSI9 29-605)
T2 sequence (looked up): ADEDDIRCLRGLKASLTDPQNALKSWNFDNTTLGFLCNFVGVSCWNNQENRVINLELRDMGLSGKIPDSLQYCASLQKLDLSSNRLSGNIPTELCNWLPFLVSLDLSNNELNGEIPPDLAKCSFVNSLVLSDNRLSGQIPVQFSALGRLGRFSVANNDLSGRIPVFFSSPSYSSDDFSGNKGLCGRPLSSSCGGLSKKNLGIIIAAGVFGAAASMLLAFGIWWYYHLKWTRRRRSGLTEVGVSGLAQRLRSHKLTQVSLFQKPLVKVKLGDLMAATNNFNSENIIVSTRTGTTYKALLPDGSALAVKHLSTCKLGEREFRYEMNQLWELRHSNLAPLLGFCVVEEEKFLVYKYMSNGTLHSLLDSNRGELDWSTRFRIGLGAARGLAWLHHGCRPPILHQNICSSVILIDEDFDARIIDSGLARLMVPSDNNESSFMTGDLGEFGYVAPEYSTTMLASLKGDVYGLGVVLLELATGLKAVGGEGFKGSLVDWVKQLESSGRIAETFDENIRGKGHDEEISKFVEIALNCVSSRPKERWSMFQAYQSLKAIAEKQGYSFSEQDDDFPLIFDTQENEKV

- FRET efficiency (MEKK2-mCherry): 13.1 ± 1.76%
B1: LET1-GFP (receptor, Arabidopsis thaliana (Col-0 cDNA), UniProt O22187 29-834, looked up)
chain: DTSTYTRPENFYVNCGSDSNVFYGGQTFVGDTNSSTNSVSFTNKGTEVINDQSSVAPEIYRTVRIFRHPSSYKFKLDSLGLHFVRLHFSVVFSRADLLTARFTVSATSGSNHHLKSFSPQNLTNTPRVEEFLLMMNSLEFEIRFVPDHSSLALINAIEVFSAPDDLEIPSASDKNLHTIYRLNVGGEKITPDNDTLGRTWLPDDDDFLYRKDSARNINSTQTPNYVGGLSSATDSTAPDFVYKTAKAMNRSSNEQVGMLMNVTWSFKVKSNHRHFIRIHFSDILSNLSNSDSDFYLFVNGYWRVDVKPSEQPRLASPFFKDVVNVSDGSGLLNISIGTKEANKDAGFLNGLEMMEVLSKSGSDYSNRSSSRVHIITGCAVAAAAASALVFSLLFMVFLKRRRSKKTKPEVEGTVWSPLPLHRGGSSDNRPISQYHNSPLRNLHLGLTIPFTDILSATNNFDEQLLIGKGGFGYVYKAILPDGTKAAIKRGKTGSGQGILEFQTEIQVLSRIRHRHLVSLTGYCEENSEMILVYEFMEKGTLKEHLYGSNLPSLTWKQRLEICIGAARGLDYLHSSGSEGAIIHRDVKSTNILLDEHNIAKVADFGLSKIHNQDESNISINIKGTFGYLDPEYLQTHKLTEKSDVYAFGVVLLEVLFARPAIDPYLPHEEVNLSEWVMFCKSKGTIDEILDPSLIGQIETNSLKKFMEIAEKCLKEYGDERPSMRDVIWDLEYVLQLQMMTNRREAHEEDSTAINSGGSLVAPRLMVSDSFSTNSIFQNGDESKNRFGFTDSSETRVFSQLKISDAR

Binder: B2
- FRET efficiency (SUMM2-GFP): 7.99 ± 0.19%

- FRET efficiency (BIR2-mCherry): 13.5%
B3: BAK1-GFP (receptor, Arabidopsis, UniProt Q94F62 26-615, looked up)
chain: NAEGDALSALKNSLADPNKVLQSWDATLVTPCTWFHVTCNSDNSVTRVDLGNANLSGQLVMQLGQLPNLQYLELYSNNITGTIPEQLGNLTELVSLDLYLNNLSGPIPSTLGRLKKLRFLRLNNNSLSGEIPRSLTAVLTLQVLDLSNNPLTGDIPVNGSFSLFTPISFANTKLTPLPASPPPPISPTPPSPAGSNRITGAIAGGVAAGAALLFAVPAIALAWWRRKKPQDHFFDVPAEEDPEVHLGQLKRFSLRELQVASDNFSNKNILGRGGFGKVYKGRLADGTLVAVKRLKEERTQGGELQFQTEVEMISMAVHRNLLRLRGFCMTPTERLLVYPYMANGSVASCLRERPESQPPLDWPKRQRIALGSARGLAYLHDHCDPKIIHRDVKAANILLDEEFEAVVGDFGLAKLMDYKDTHVTTAVRGTIGHIAPEYLSTGKSSEKTDVFGYGVMLLELITGQRAFDLARLANDDDVMLLDWVKGLLKEKKLEALVDVDLQGNYKDEEVEQLIQVALLCTQSSPMERPKMSEVVRMLEGDGLAERWEEWQKEEMFRQDFNYPTHHPAVSGWIIGDSTSQIENEYPSGPR
